Data as given in the NTF2 design screens of Basanta et al. (2020).

Assay: protease stability score; higher = more stable; yeast display proteolysis, trypsin and chymotrypsin;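 further: relative to predicted unfolded state with 0 unfolded-like and 1 meaning tenfold more protease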

Sequence | protease stability score
NEEEHFMKEALEIWLHFFRTGDERDIQREFDPNARFEFENHTSHGRESVRELLTRLFHDLGINHVQFESIRVQGDKVEIHGHFFVDGRRYDFEMNSVKINGRWLNHTIRLR | 1.12
NEEEHKLEEEFERLMHLLLTGDEEKLHRLADPNVKVNVNGKDLHGMELFFHVWWEELKRYDYWHITIRHIDSQGNKADSEVELNLVFNGKEIRIDSRMHLEVVNGRIKRIEIRPI | 1.63
NEEEHTFEIAIRILREMWETGDEKLSQELADPNARLDIGDKHFHGRESLRHRVHEMRIEHTDIHSYHTINGRVHMDWRVDGFINGQRHDTRMHLDVIKIDGRWIIKNVEVK | 0.571
NEEEKIIKKDIEKEITAWETGDFDTLDHLLDPHARMDINGKDLHGREVLKTHFHEEWNRLGLEKVEIHIQDFRVIDGRVHIDGYMNVNGRHQKVRFIARKVNGRWIIHEVEFR | 1.32
NEEEKLSEEWSDHLLHNLITGDEEMLKRFMDPHTWAESEVDGQDEKYHGREQALHMVYRVIHRLGFNHFHIHRHRVIGDKIHVELRIVVGDKEVDAHFETIIINGKVHRIRIHVTKR | 0.323
NEEEKRMVEEHEKFWNFVRTGDEDTVRDLIDPHARVIQGNKILHGWEEAVRWMKEIRIHDIRIHSSHEVDGRVTITGDMDFEFNGKRHILEVRIFLLKIDGRWIHTFIQID | 1.33
NEEEQEILEDVEEHIRAEYTGDEEVLDNLADPNTRIHYGEKELHGREEWLQLVHDEHNRFKGMKIEVIIRHIDIYDGRVRSEGELHIHVGDKEYHVDVQMILTKVNGRWLLTRIHFH | 0.093
NEEERENIRIFMMWIEDLVTGNWDRIEHLADPHYRQDVNGRHIHGRDTFAQMVREEMHRIDHHEIKLRHVSVQGNKLRAHVEINLIIGEKRIEKEVIVDLNVINGVLHEVKIVVR | 1.04
NEEFRDAQMAAHEFINVMETGDEHLLSRRLDPNMRVDINGREFHGWEQWVRIFREIRVKSIRYEEIRVQGDKVHLHTRLHVTIGDYEFTTETTIFIDKINGVWYIKEFHMN | 0.253
NEEHEVLERVVELFMEILDTGNERLSRELVDPHVRVIIGDKELHGREQVARFHKELHERVDHWEIHIRRIEFQGDKLHMDFELRNDYNGVRITTDLIILVKKVNGVWKLRAREVR | 0.271
NEEKEEAERFTRQFLHSWRTGDEESLKRMADPNVRIIVGDYEKVGWEAIEETIKRLGIDHLEYHSVHVHVIGDKVNIHSDVRIQVNGQERDVQIHVHMRKINGRWFVESIRLNFH | 1.26
NEEKELWHKDIEDLQRDWKTGDEDSVREQLDPDVRLDINGVEIIGMEEATRFIIELMREIRIHVNLERIIIQGDKIILHGNLVVEQGDKHHITRQTIDARKVDGRWFEHKVRVE | -0.033
NEEKETADTFLRHLVHRLHTGDEDMLMRLADPHVLIIQGDKTYHGWHWFERNFLEQINRFKGLTVKVERKDVHLFENRLILEGTLHLEFNGRDVHIEQEIIVHKINGRWILTHYMLI | 0.813
NEEKRDSDILRRHLLEVLDTGDWDRMHELADPNAKTHFNGRDHHGREDMTHLFRELGVKHQELRSVHLQGNYVEITIHVSVDGRHVHLRFFMVKIDGKWRIRHMEIEWL | 1.14
NEEQKEAEDFMRMVSRIHETGDEDSLRRYFDPNVRIKDENHHLHGWKELIHWTHRVDHIEVRVKNVDIQGDKIHLDGEEIVRIDGVEVRRRVLFILTKVNGRWHIQEIRIE | 0.72
NEEQNHAERMMRENLHNIMTGDEHKLHKLADPDARIEIGDKEIIGRELFSRILLELRFEITRVHIREITLIGDKVHVRTEEDVVIKVNGVEKRRHINSEWIFFKFNGQWLLKEVRFE | 1.34
NEERSHSEEVARLISHAWETGDEETLREQVDPHVKLVIGDKTFHGREEALTIIVQLRLRTVEIHDMKVVNGRLNLFTLWHIEIDGRRVLHHVVIHIEKIDGRWVMTEVRVH | 2.1
NEHEETIEILFRDIVHVLRTGDWKLFSDLMDPHARYVIGDKTFHGRESWVREFDRLLEQIKGVRFDVRHVNVVGDKVHAFTDWEFNGVMFDTRLDLHIVDGRIKEMRLEIR | 1.12
NEHEEYARRQLELWLHATRTGDEETVRRLADPDVRVIVDGREHHGMEQLLRWMIELRITDFKEDTYEIQGNKIKIRGILYIEIGDKHETRFTTIELNWFNGVLKHIKVEVR | 1.28
NEHEKLLKESLEELRHALRTGDEESLERLVDPHARMVVNGVTYHGREYLHRFFHRIDYFHNEHLDVKEVHVQGDKIHFDVVTHGVFHVGDKKIKDTIRLSSIAEKIDGRWFNREIFHH | 0.412
NEHKEEALHALQLWLRYYETGNEDSLREMLDPNVRVVINGKELHGMELFLDYIVDTRDRIKGLRIIIDDIEIHYVGDKVHVNIRGISYFNGREHEVEINIFSRKINGKWYLSSLELRVN | 2.55
NEIEEIVERLWRLYIQNRLTGDEDQMSRLADPHTRVHIHIGDKHIDIHGMENTARLTTKLRREIRMEIEIHHVTVQGNKLHAEVRLILHIGDKILESDTRIINIFVDGKLRTVHIHIE | 1.32
NEIEELVRESLELLAHALETGDEKLMTELADPDTRLIVNGRHLWGWELHLMFLTRFDHIETRIRLTEMEVQGEKVNSRGDMDVIVNVDGQRDRKRHEFIIISTKINGRWRLKSVILR | 1.57
NEINRHLHEAFKKLINVMMTGDEEESTELLDPNARINFNGKDFWGWNELRKSMHEARIHHIQITSVRYIGDKIIIHGTVDGEFDGQRKEVEMEIFSRKFNGQWFFESIIIR | 1.28
NEKEEESKRFIELFMELIVTGNEEVLYKLADPTVQWRADVDGQEINLHGWEHIHDEINKFPNITLELEEREIQGDKVDIRTRLHIGDKTRDTRVIIIVINGRVKQIHIEIR | 2.28

Sequence | protease stability score
NEKEELLRKIMDMLIRHWETGDFEKLMELADPNVRLHYEQGDKEHHHHGREDVAKFIEELLRMLGVDHWHLEKIEIVGEKLHLHGRIHVNGRTIDLRIHWVVVNGVLKSVRIILG | 1.14
NELDKHTKEFAERWIKSVETGDWRSEEHLLDPHVKLETKVNGRDVRVVGREEVHRYLRELHEELGVDKVEFITRRIRLQGDKIDIDGELRINGRTHEAHIHLDIINGRIHSVRLQWT | 1.44
NELEDLVRWAWQLIVESHQTGNEHMMEELADPNMRIHINGVDLVGRKDFRKMLKDHRDRVDHLEVELTDFILIDGRVIVHGQINIQIGDKREERRVRLFLLKINGKWRIEKLEVE | 1.64
NELEDRFDYAMKLWIDILRTGDEHQFEEMADPNVRIIDGDKHNVGREILYFLLWKFGFDNFEFRLHDFKIQGEKIHIDGHFRVDGQTHRVHFVVLKIDGRWLVESVERK | 2.01
NELEEEAHRKMEKVLRHLQTGDEDSLHRLLDPNVRLIVGDKEMHGRERAVEVLSRILKEMGVKHIKLRRFSVFNGVAHTDSELNQGEYVHNLHLVIEKVDGQWVMRSLHIE | 1.41
NELEKETHEITRRWIEILLTGNEEDWAKLADPHVRIDINGKKYVGREMVVEYLRELLDKIKNLQFHITRIHDQGDKSEIDGRLEYNGRKHEARVEIWIIDGKIRSEHYSIR | 2.2
NELEKHLREMTREMLEAWRTGDFDHLEHLADPHVRIETIYNGQREEFHGREWLIKAVERLDRLMGIDHIYFQEWTTIGDFVDVDLRTQVGDKRIRLHMELNVVNGRIKFHRIEVE | 1.24
NELEKWVEQATREILRVMETGDPNETEKLIDPHVRREQGEFIYHGWENITHFMEHARFERYKLHDVDLQGDYVNLNGRLDGVYNGKKERTEVEFYVLKINGRWHVTSMHVH | 1.28
NELHKEYRHMLHILRHIIETGNERALEENMDPNYRIEIGDKRIHGREKALEFWWRLNKRVDHLELHDEHINLFEGHVEIDGRLILKQGEYIEESKTTIFIVKVNGRWVLRSFRVE | 1.86
NELQYKILHALRLFVESLLTGDPTTIERLLDPDARNQWDGVHHVGMEEWSRFLEELRIQIHDLEFKHIEIVDGQLRVDGREDMIIDVNGVRTRTNRKLRLIIVKFDGRWRIESVKVE | 1.22
NELTEVIRYWIHLWLTQLFTGNEEIIRRLADPNARFEVNGREIHGMDEWVDILKRLGMRFHHFHVDTIEIIDGVIHVQSRFDIDINGRRVNEETYHVIEKINGRWTLRTMELR | 2.31
NEMDEHARHFAELFLRLMRTGDEETTEKLADPHVKVVIGDFEFHGWKMLSIFLREIRIHDIRLEDHRTQGNKSIIHGRTDGEINGQRYETELYIELHLVNGRLKSMRFEWR | 0.698
NEMEEYVERASRFVYELLQTGDWEKLMNNMDPNVKIRQGNKEYHGREELKRQLEELFKNWGFDRIDVEHHEIKIFENHAHIIHIMRFDGVEHELRIKALKVNGQWLFKTVEIRLH | 1.36
NEMHDFAKLAIELLLKSLKTGDEHTLEHLLDPNVRMNIDGRRWHGRENWVKRVHDLGITTRDFKLTDVKNQGNKVHIDGHAVEEVNGQRIERRVEIISVKIDGKWEIEEIRIE | 1.02
NEMHEHAREFLERWKEWMHTGDEETMSKLADPHVRNEYNGVIRVGMEALEKVIRELRVRRTHDHHEHIEFQGDKLHIHVDQESDIEINGVRHRVRIHFDIISVKINGKWTLKSIRLTFH | 1.41
NERDERVEELMKLWFESLRTGDWRQMRNLLDPHARVIMLVGDKHVELHGWEAMLLLIHQFRNIRLRIDSTRLQGDKLEIEGTSEFDGKHRNVVIEIQVINGRIHTIKYIED | 2.1
NEREEHIRRLAELVRELIDTGDFDRLIKNADPNVRLEMEIGDKRIEHHGRERVHEQLEEFERRFKNATFIWKRIDVQGEKVLLDGTIRINGQEHEMHWDNQMFNGRIHSIRIDVR | 2.2
NEREKLVLDLAMRWFEAWLTGDEHLLHLLADPNVRFIYGDKHLIGMDELHRFLREIRIISRDRHFEDKRVIGDKVELDVRLRGEVDFNGRRLDIDLTVHIESHIINGKQHTSRMETI | 1.07
NEREKWAVDMFEILVHLFFTGDEEIMAHMADPNTQIHYGEYHHHGRDHLRELLREEFKRVDHVEWRLDTVRIIDGRVLIHSHVIHKVGEKTIKREYVIILLKVNGQWHIKHIEIR | 1.46
NERKKFIEELARLYFKWWLTGDFENLLRNADPNTRIDVNGREIIGREKFVEELREHVDKFKNIREDLHDMDLQGDKVILHIRMNVDGKTIEVRVEIFVINGQIRSESWRFE | 1.34
NERTEEIEEAMERMLEWWRTGNFEDINKNLDPNMRTHVFIDGREVLFHGRELMLEIFDRMGVDHIEVTHFDVIGNKVEVHSRSHQGDKHVDIKLVLEKIDGRWILSQIHIRIE | 1.94
NESEELYRIALELKRETDKTGDEEIFRKLMDPSTRLEVDGRIWHGREAVEVFIRRFDHLHRFEVKDTRVFDGQVQIEGELDSTVGDKRLNVHIEVFAIKFDGRWRLKSVRVE | 1.58
NETEELLRRMIEDNLRAMLTGDEERIRKLADPNVRNHINGRTHVGREELAHVFHRIFEEWRIDHMTLRDSDTQGEFIILHYIFDIRFDGRRQELEVEIIFYKIDGRWILHKITFK | 0.75
NEVDEWVEEAVHLLEEILETGDFRELSNYFDPRVRIDINGRDYHGRELALEQLLRWIEDLGVKHFDHYEIHDREIQGEKVNLNIEITLTFDGRRHTIHHNFHMEKVNGKWVIESIHIR | 1.19
NEVEDEIKHLLEHLLHSHDTGDWHDLVRLADPNVRVNINGKHFHGREDVEEVIKRLGIKHIRIHHVEVQGDKIHIDGNMHFDGRVYETHIDAKKIDGRWIMHNLEVR | 1.4
